This passage reports Kd results from article PMC4610628 (Immunology, 2015).

For experiment [1], the target named is CD229 more distal ITSM phosphopeptide (TIpYCS) (human). Kind of experiment: SPR; data not shown; SAP on tyrosine phosphorylated CD229 distal ITSM peptide, 37°C, n = 3.
In experiment [2] the target is T1, signalling lymphocyte activation molecule-associated protein (SAP), full length, recombinant human (human, UniProt O60880 1-128).
T1 construct: SAP (SH2D1A), human, full length recombinant protein; called 'soluble monomeric recombinant human SAP' in the results; also called SH2D1A; source: recombinant, produced in-house and purified on the day of the experiment
T1 sequence (looked up): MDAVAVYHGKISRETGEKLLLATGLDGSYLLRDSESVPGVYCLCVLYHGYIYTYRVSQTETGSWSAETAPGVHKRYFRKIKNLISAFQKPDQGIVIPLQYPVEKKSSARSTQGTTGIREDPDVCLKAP
In words: SPR; BIAcore 3000; biotinylated phosphopeptides immobilised on a streptavidin-coated CM5 chip (~30 RU), purified recombinant protein passed over; 37°; 10 mM HEPES pH 7·4, 150 mM KCl, 10 mM EDTA, 0·005% Tween 20; equilibrium data, one-site binding curve. To be noted: both partners purified. (In SPR one partner is held on a chip, and binding of the other changes the refractive index at the surface.)

The target in experiment [3] is T2, SHIP SH2 domain from SHIP-1, recombinant human (human, UniProt Q92835 5-101).
T2 construct: SH2 domain of the inositol phosphatase SHIP-1, human; source: recombinant, produced in-house and purified on the day of the experiment
T2 sequence (looked up): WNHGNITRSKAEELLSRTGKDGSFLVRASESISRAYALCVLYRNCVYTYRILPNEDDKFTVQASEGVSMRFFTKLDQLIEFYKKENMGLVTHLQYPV
The description is as above. To be noted: both partners purified.

Several values for one entry are separate records, joined by “and”; a condition that tells them apart may be missing. Equal entries are not always repeated. Square brackets hold non-standard residues; d marks the D form. Ends that are not written are not given here. * marks the point of attachment. Biotin = O=C1N[C@H]2[C@H](CS[C@H]2CCCCC(=O)*)N1; pY = N[C@@H](Cc1ccc(OP(=O)(O)O)cc1)C(=O)O

B1: signalling lymphocyte activation molecule-associated protein (SAP), full length, recombinant human (natural protein)
chain: T1 sequence (looked up)
In turn, B1 showed a dissociation constant Kd in experiment [1] of 0.1 µM.

B2: CD229M phosphopeptide (CD229 ITSM1, Met602 variant) (peptide)
peptide: Biotin-GENTM[pY]AQVFN
notes: CD229 (Ly9, SLAMF3), human, first (membrane proximal) ITSM, natural variant Met602 of SNP rs509749; also called CD229 Met602 ITSM; TMpYAQV; source: synthetic peptide; bought: Peptide Protein Research Ltd
As to B2, the equilibrium dissociation constant (Kd) in experiment [2] is 1.7 µM and 1.5 to 2 µM; in experiment [3], 23 to 92 µM and > 50 µM.

B3: CD229V phosphopeptide (CD229 ITSM1, Val602 variant) (peptide)
peptide: Biotin-GENTV[pY]AQVFN
notes: CD229 (Ly9, SLAMF3), human, first (membrane proximal) ITSM, natural variant Val602 of SNP rs509749; also called CD229 Val602 ITSM; TVpYAQV; source: synthetic peptide; bought: Peptide Protein Research Ltd
B3: the equilibrium dissociation constant (Kd) in experiment [2] was 3.4 µM and 2.8 µM and 4.4 µM; in experiment [3], 100 µM and 82 to 110 µM.

B4: CD244-ITSM1 phosphopeptide (peptide)
peptide: Biotin-EFLTI[pY]EDVKD
notes: CD244 (2B4, SLAMF4), human, ITSM1; source: synthetic peptide; bought: Peptide Protein Research Ltd
For B4, the dissociation constant Kd in experiment [3] is 25 µM.

B5: FcγRIIb-ITIM phosphopeptide (peptide)
peptide: Biotin-ADKVGAENTIT[pY]SLLMHPDA
notes: FcγRIIb, human, ITIM; source: synthetic peptide; bought: Peptide Protein Research Ltd
On to B5, for which the Kd in experiment [3] was 0.36 µM.

B6: CD244-ITSM2 phosphopeptide (peptide)
peptide: Biotin-GGSTI[pY]SMIQS
notes: CD244 (2B4, SLAMF4), human, ITSM2; source: synthetic peptide; bought: Peptide Protein Research Ltd
B6: the Kd in experiment [3] was determined as 2.4 µM.

The Kd is the free concentration of one partner at which half of the binding sites on the other are occupied at equilibrium, for simple one-to-one binding.
